According to patent US5844093:

Legend:
[1] = biological target: EGFR on EGFR-bearing tumor cells (human) (UniProt P00533); assay: flow cytometry, A431 cells, crude bacterial supernatant
[2] = biological target: EGFR on EGFR-bearing tumor cells (human) (UniProt P00533); assay: flow cytometry, HT29 cells, crude bacterial supernatant
[3] = biological target: EGFR on EGFR-bearing tumor cells (human) (UniProt P00533); assay: flow cytometry, MDA MB 231 cells, crude bacterial supernatant

mean of arbritary fluorescence units (arbitrary fluorescence units) [1]: 85.5
mean of arbritary fluorescence units (arbitrary fluorescence units) [2]: 2.5
mean of arbritary fluorescence units (arbitrary fluorescence units) [3]: 21.3
Substance: scFv derived from MAb 425
